{
  "source": "paper PMC2133180",
  "molecular_target": "perlecan purified from Englebreth-Holm-Swarm tumor (UniProt Q05793)",
  "sequence (Q05793 22-3707)": "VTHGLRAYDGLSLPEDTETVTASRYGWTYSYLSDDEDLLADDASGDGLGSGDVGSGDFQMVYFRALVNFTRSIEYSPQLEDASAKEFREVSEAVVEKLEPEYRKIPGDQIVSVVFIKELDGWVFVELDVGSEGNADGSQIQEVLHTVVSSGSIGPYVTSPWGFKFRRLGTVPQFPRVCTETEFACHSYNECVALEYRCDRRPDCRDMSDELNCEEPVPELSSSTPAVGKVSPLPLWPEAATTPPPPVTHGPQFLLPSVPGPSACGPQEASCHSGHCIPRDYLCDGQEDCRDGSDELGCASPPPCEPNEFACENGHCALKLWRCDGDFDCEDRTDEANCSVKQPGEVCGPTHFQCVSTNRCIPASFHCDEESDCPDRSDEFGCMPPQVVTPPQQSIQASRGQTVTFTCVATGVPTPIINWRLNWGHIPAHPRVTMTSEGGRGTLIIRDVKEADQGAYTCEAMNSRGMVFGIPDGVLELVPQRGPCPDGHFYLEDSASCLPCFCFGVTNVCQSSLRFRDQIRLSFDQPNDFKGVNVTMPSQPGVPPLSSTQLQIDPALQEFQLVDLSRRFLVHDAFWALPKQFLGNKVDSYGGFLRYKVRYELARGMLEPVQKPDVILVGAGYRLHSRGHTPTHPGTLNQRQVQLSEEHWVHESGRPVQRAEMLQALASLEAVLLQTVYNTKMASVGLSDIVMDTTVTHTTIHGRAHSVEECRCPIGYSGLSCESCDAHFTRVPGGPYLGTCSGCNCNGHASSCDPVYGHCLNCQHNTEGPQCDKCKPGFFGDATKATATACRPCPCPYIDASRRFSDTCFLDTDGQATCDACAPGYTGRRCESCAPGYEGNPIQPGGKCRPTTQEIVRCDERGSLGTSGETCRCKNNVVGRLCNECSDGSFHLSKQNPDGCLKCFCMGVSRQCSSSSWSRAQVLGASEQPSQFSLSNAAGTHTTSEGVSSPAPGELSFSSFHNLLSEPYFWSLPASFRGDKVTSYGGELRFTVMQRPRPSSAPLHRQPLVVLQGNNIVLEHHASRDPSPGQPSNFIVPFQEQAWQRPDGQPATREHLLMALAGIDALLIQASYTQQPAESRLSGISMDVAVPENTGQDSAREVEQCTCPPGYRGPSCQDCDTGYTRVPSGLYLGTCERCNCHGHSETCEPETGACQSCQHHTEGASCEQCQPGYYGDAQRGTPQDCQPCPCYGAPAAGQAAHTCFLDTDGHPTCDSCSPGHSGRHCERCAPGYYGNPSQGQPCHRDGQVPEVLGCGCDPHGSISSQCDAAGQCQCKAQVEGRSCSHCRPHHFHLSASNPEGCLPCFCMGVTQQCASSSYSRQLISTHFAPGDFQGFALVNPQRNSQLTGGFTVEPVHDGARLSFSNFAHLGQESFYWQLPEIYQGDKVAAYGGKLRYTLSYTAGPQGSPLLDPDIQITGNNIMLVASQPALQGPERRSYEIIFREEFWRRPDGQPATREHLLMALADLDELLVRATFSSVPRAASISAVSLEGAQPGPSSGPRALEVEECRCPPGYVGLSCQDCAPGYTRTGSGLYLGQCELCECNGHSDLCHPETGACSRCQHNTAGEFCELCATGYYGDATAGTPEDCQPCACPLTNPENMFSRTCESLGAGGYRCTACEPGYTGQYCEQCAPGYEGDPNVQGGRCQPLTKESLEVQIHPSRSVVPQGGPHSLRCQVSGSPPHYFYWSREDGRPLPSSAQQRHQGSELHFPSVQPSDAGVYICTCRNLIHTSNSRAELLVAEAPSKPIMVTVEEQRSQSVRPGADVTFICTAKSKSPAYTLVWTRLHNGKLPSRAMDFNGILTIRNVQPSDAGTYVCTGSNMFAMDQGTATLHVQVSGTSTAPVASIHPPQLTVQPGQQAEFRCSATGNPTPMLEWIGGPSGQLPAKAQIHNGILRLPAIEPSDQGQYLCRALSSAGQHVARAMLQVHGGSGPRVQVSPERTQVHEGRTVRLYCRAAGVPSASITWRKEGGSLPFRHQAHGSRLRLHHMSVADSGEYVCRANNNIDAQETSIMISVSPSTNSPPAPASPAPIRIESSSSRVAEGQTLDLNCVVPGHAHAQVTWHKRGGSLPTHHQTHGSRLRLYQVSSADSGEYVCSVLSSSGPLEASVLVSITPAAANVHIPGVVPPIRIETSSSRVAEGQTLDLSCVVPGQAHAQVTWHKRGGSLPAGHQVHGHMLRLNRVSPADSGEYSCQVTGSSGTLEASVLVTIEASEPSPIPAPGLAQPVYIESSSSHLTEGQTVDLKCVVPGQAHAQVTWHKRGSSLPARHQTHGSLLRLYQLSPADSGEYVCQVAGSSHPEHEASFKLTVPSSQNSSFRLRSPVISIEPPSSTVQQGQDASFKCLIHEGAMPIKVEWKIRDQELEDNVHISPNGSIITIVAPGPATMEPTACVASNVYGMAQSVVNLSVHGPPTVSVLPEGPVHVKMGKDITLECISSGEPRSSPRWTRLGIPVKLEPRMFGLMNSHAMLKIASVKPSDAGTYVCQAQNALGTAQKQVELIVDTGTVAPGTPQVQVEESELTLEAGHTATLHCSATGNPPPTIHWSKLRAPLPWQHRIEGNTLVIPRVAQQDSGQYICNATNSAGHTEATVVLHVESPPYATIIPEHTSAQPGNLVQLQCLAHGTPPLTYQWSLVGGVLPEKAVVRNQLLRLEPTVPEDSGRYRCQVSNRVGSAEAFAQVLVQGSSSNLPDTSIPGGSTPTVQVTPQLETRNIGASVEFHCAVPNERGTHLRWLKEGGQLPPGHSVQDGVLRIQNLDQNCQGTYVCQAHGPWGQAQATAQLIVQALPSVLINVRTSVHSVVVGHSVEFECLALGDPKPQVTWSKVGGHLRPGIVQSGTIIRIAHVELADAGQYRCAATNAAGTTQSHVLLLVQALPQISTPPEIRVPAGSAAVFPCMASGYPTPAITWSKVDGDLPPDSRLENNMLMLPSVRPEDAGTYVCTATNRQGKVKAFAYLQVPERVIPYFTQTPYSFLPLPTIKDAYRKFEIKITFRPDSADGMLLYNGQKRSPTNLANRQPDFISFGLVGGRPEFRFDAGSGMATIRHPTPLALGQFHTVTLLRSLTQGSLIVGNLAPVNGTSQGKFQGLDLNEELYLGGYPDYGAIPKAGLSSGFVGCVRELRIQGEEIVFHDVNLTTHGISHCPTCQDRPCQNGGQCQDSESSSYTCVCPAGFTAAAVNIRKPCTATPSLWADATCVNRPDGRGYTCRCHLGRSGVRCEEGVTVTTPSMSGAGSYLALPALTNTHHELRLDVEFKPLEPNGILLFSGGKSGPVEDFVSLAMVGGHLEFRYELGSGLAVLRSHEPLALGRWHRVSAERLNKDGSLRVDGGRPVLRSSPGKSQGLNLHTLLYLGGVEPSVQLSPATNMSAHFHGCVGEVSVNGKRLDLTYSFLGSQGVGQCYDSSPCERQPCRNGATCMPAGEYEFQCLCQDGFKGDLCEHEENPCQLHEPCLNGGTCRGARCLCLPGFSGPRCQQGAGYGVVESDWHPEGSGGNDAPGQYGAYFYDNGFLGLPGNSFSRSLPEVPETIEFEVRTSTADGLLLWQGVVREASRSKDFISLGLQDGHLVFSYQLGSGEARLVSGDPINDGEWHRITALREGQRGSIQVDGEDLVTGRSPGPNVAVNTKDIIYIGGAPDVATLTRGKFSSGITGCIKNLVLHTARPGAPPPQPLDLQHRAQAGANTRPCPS",
  "assay": "SPR",
  "data": [
    {"substance": "quail A12 collagenic-tailed acetylcholinesterase (asymmetric form) (complex)", "values": [
      {"measurement": "fold change in RU over the G2/G4 value", "result": 270, "unit": "fold"}
    ]}
  ]
}
